In article PMC9381590, “DDX39B drives colorectal cancer progression by promoting the stability and nuclear translocation of PKM2” (Signal Transduction and Targeted Therapy, 2022):

B1: purified recombinant PKM2 1-219 aa protein (domain or fragment)
chain: not shown
notes: also called PKM2^1–218,219aa; source: recombinant, purified
B2: purified STUB1 (natural protein, UniProt Q9UNE7 1-303, looked up)
chain: MKGKEEKEGGARLGAGGGSPEKSPSAQELKEQGNRLFVGRKYPEAAACYGRAITRNPLVAVYYTNRALCYLKMQQHEQALADCRRALELDGQSVKAHFFLGQCQLEMESYDEAIANLQRAYSLAKEQRLNFGDDIPSALRIAKKKRWNSIEERRIHQESELHSYLSRLIAAERERELEECQRNHEGDEDDSHVRAQQACIEAKHDKYMADMDELFSQVDEKRKKRDIPDYLCGKISFELMREPCITPSGITYDRKDIEEHLQRVGHFDPVTRSPLTQEQLIPNLAMKEVIDAFISENGWVEDY
notes: STIP1 homology and U-box-containing protein 1 (STUB1); the methods tell only of GST- and His-fused proteins from E. coli BL21 (DE3); source: recombinant, purified

Legend:
purified STUB1 = molecular target: B2; assay: in vitro competitive binding analysis; purified proteins; increasing amounts of DDX39B added to PKM2 (WT or 1-219 aa) and STUB1; western blotting; conditions: both partners purified
[1] = molecular target: T1, purified recombinant PKM2 (UniProt P14618 1-531); assay: as above; conditions: both partners purified
T1 construct: pyruvate kinase isoform M2 (PKM2); the methods tell only of GST- and His-fused proteins from E. coli BL21 (DE3); also called PKM2^WT; rPKM2; source: recombinant, purified
T1 sequence (P14618 whole entry, the tested form may be a part, canonical isoform): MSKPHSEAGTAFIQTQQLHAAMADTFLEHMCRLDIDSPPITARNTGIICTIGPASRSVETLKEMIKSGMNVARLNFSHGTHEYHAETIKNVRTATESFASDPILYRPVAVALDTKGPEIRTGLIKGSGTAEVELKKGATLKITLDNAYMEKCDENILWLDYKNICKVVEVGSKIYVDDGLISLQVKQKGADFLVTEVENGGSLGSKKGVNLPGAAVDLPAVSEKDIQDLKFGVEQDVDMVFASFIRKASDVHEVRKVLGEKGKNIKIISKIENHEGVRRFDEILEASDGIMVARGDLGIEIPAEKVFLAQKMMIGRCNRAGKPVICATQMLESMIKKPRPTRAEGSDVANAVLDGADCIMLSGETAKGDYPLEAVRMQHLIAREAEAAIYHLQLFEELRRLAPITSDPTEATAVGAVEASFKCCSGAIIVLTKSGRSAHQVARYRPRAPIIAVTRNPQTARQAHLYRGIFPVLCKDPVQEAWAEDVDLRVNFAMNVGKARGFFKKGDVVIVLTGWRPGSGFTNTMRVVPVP

Binder	binding result (purified STUB1)	binding result [1]
B1	binds	–
B2	–	binds
